Experimental data reported in patent US20170128544A1.

Target: Bb, the active site-bearing fragment of Factor B (human) (UniProt P00751)
Test: surface plasmon resonance, decay-dissociation of the convertase

Chain of Bb, the active site-bearing fragment of Factor B (human) (P00751 260-764 limits assumed): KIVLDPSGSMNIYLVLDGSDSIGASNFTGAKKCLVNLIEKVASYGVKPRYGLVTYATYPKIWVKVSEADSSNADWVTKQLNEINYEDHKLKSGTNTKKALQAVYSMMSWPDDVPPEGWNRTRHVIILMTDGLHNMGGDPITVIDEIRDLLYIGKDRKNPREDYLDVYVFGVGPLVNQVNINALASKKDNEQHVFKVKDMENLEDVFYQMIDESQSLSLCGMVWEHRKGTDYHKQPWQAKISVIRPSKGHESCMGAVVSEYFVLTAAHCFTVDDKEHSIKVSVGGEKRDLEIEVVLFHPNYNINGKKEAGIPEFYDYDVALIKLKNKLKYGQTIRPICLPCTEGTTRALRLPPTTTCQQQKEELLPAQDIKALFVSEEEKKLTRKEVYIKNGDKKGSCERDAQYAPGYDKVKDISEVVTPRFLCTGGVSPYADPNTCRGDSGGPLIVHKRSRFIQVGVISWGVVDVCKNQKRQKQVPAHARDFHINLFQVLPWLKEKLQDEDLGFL

| Substance | Half-life at 25° C. (hrs) of the spontaneous decay-dissociation |
| --- | --- |
| cobra venom factor (CVF), natural (from UniProt Q91132 23-649; Q91132 733-984; Q91132 1264-1642) | 19.2 h |
| humanized cobra venom factor (hCVF) protein HC3-1550b (from UniProt P01024 23-1549; Q91132 1529-1642) | 2 h |
